Data: patent US20140248291A1, “Modulation of Cellular Migration” (THE UAB RESEARCH FOUNDATION, priority 2011, published 2014)
Blank lines part the entries; values can stand above or below the molecule they belong to.

Experiments:
[1] = system: D54-MG cells; assay: calcium imaging (Fura-2) of D54-MG cells after neuroligands; type: cell-based, human
Description: D54-MG cells were plated on 35-mm glass bottom dishes (MatTek, Corp., Ashland, Mass.) at ˜100×10^3 per dish and cultured for 2 days. pTRIPZ transfected cells, after stable selection, were plated at a density of ˜20×10^3 per dish and treated with […] doxycycline for 4 to 5 days to allow for sufficient protein knockdown. All cells were loaded in serum-free culture medium for 45 min with the ratiometric Ca^2+ dye Fura-2-acetoxymethylester (5 μmol/L; TEFLABS, Austin, Tex.) reconstituted in 20% wiv pluronic acid in DMSO (Invitrogen, Carlsbad, Calif.). Cells were rinsed with serum-free medium and allowed to rest in 7% serum-containing medium for 45 min at 37° C. The glass-bottom dishes were placed in an environmental chamber mounted on an inverted microscope. Cells were allowed to equilibrate in the chamber for 15 min before calcium images were collected. Following equilibration, recordings were obtained with an Olympus Disk Spinning Unit (DSU) fluorescent imaging microscope where cells were alternately excited at 340 and 380 nm using an x-cite illumination light source. Emitted light was collected at >520 nm. Images were digitized online using Slidebook 4.2 software (Intelligent Imaging Innovations, Denver, Colo.), and 340:380 nm ratios were obtained every 15 seconds. Following a 5 minute baseline recording every 15 seconds, BK was applied to the cells and imaging continued every 15 seconds for 30 or 60 minutes. In a subset of experiments, BK antagonists, HOE-140 and Bradyzide were applied to the cells. These experiments were repeated at least three times and data were pooled for statistical analysis.
Glioma cells respond to environmental clues as they invade the brain. It has been previously shown that the exposure of glioma cells to certain neuroligands induces increase in intracellular calcium concentrations. In this series of experiments, we investigated Ca^2+-responses in cultured D54-MG glioma cells, after addition of acetylcholine (ACh), ATP or BK. Glioma cells were loaded with the ratiometric Ca^2+-dye FURA2-AM, and imaged over 30 min.

[2] = system: D54-MG-GFP glioma cells; assay: Transwell migration assay; type: cell-based, human; settings: 5 h, neuroligand at bottom of filter
Description: The day before the experiment was performed, ˜70% confluent dishes of cells were prepared. Transwell migration Fluoroblock cell culture inserts (BD Biosciences, San Jose, Calif.) with 8 μm pores were coated overnight with Vitronectin (BD Biosciences, San Jose, Calif.) at a concentration of 5 μg/ml in PBS. The following day, inserts were blocked with 1% fatty acid-free bovine serum albumin for 1 h. Inserts were then washed two times in PBS, and 400 μl of Migration Assay Buffer (MAB, 0.1% fatty acid-free bovine serum albumin in serum-free media) was added to the bottom of each well. Cells were rinsed once in PBS and were lifted off the dish by the addition of 0.5 mm EGTA. Cells were rinsed twice by centrifugation and resuspended in MAB and counted. Forty thousand cells were plated on the top of each filter and allowed to adhere for 30 min before drug was added. When BK+/−antagonists was added to the filters, it was added only to the bottom of the filter for chemotaxis. For migration assay, D54-EGFP MG cells were allowed to migrate for 5 hours, washed with PBS, fixed with 4% paraformaldehyde 15 minutes at room temperature, washed thrice and counterstained with DAPI for 5 minutes at room temperature. Invasion assay was performed similarly. Matrigel cell cultured inserts (BD Biosciences, San Jose, Calif.) with 8 μm pores were pretreated Vitronectin and blocked as described above. […] The number of nuclei that migrated through pores was counted. All counts per treatment were averaged and SE values were calculated. […]
To investigate the hypothesis that BK promotes glioma migration in vitro, we used Transwell migration assay which conveniently permit examination of cell migration across a membrane barrier with 8 μm pores towards vitronectin, a chemo-attractant extracellular matrix protein. This frequently used assay allows a quantitative study of drug effects with regards to drugs acting as motogens or as chemo-attractants. […]

[3] = target: B2R (Homo sapiens, UniProt P30411); settings: cited from earlier work
Chain of B2R (P30411 whole entry, species assumed): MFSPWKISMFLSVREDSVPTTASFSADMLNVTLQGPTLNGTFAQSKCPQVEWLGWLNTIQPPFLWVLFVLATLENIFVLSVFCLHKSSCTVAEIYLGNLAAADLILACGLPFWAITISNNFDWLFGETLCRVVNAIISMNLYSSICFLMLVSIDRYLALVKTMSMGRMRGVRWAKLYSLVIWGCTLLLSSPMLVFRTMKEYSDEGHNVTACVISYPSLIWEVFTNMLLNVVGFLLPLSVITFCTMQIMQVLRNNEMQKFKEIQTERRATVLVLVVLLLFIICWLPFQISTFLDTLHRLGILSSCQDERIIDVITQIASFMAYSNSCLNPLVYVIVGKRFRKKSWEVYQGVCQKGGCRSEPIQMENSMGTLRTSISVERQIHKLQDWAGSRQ

[4] = target: bradykinin-2-receptor (B2R), human, as expressed on glioma cells (D54-MG, D54-MG-GFP, U251-MG) (human) (UniProt P30411); assay: cell-based or functional assay
Chain of bradykinin-2-receptor (B2R), human, as expressed on glioma cells (D54-MG, D54-MG-GFP, U251-MG) (human) (P30411 whole entry): as the sequence (P30411 whole entry, species assumed) above

Molecule: CC(=O)OCC[N+](C)(C)C [ACh, acetylcholine]
average peak of Ca2+ response ([1]; 50 μM ACh): 0.23±0.04 | cells responded (sustained rise in intracellular calcium) ([1]; 50 μM ACh, of 128 cells imaged): 116

Molecule: Nc1ncnc2c1ncn2[C@@H]1O[C@H](COP(=O)(O)OP(=O)(O)OP(=O)(O)O)[C@@H](O)[C@H]1O [ATP]
effect on D54-MG cell migration [2]: failed to alter glioma migration | average peak of Ca2+ response ([1]; 100 μM ATP): 0.45±0.05 | cells responded / cells imaged ([1]; 100 μM ATP): 87/146

Molecule: N=C(N)NCCC[C@@H](N)C(=O)N[C@@H](CCCNC(=N)N)C(=O)N1CCC[C@H]1C(=O)N1C[C@H](O)C[C@H]1C(=O)NCC(=O)N[C@@H](Cc1cccs1)C(=O)N[C@@H](CO)C(=O)N1Cc2ccccc2C[C@@H]1C(=O)N1[C@H](C(=O)N[C@@H](CCCNC(=N)N)C(=O)O)C[C@@H]2CCCC[C@@H]21 [Icatibant]
B2R antagonism [3]: potent antagonist

Ca2+-response of D54-MG cells to BK in the presence of HOE-140: average peak [4]: 0.15 | Ca2+-response of D54-MG cells to BK in the presence of HOE-140: cells responded [4]: 22 of 162 cells | directionality of D54-MG cells in a BK concentration gradient in the presence of HOE-140 [4]: 8 of 15 cells | rat brain slice invasion with BK and HOE-140: cells migrated up to 15 µm [4]: 25.7% | rat brain slice invasion with BK and HOE-140: cells migrated up to 20 µm [4]: 15.4% | rat brain slice invasion with BK and HOE-140: cells migrated up to 25 µm [4]: 6.4% | rat brain slice invasion with BK and HOE-140: cells remaining on the top of the slice [4]: 47.5% | rat brain slice invasion with HOE-140 alone: cells migrated up to 15 µm [4]: 29.8% | rat brain slice invasion with HOE-140 alone: cells migrated up to 20 µm [4]: 14.4% | rat brain slice invasion with HOE-140 alone: cells migrated up to 25 µm [4]: 3.5% | rat brain slice invasion with HOE-140 alone: cells on top of the slice [4]: 51.9%
Molecule: HOE-140 (D-Arg-[Hyp3, Thi5, D-Tic7, Oic8]bradykinin) (peptide)
